The target of assay [1] is T1, hCXCR1 (human, UniProt P25024 1-350).
T1 construct: whole, on cells; also called hCXCRI; human CXCR1 transfected L1.2 cells
T1 sequence (looked up): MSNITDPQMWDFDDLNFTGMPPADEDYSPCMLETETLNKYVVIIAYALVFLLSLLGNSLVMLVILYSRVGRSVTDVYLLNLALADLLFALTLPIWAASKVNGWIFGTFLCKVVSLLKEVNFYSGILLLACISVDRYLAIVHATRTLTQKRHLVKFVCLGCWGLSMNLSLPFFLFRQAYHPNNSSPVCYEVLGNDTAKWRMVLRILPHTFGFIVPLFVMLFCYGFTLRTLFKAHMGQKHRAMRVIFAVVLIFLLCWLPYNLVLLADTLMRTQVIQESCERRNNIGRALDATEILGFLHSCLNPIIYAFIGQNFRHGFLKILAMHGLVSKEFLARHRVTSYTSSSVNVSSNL
The assay can be described thus: flow cytometry, hybridoma culture supernatant on L1.2/hCXCR1 transfectants. Background: In flow cytometry, cells or beads pass a laser one at a time.

In assay [2] the target is T2, hCXCR2 (human, UniProt P25025 1-360).
T2 construct: whole, on cells; also called human CXCR2 transfected L1.2 cells
T2 sequence (looked up): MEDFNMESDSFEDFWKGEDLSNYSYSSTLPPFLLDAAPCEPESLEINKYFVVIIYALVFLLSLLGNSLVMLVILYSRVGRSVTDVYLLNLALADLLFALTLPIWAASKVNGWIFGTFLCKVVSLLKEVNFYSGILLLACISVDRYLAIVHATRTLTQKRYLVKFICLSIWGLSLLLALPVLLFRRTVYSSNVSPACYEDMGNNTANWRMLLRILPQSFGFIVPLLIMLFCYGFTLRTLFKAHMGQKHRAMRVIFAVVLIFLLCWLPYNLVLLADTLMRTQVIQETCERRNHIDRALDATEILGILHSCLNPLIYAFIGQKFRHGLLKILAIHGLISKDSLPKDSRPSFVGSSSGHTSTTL
Nature of the assay: flow cytometry, hybridoma culture supernatant on L1.2/hCXCR2 transfectants.

Assay [3] concerns the target T3, Peptide 1 (amino acid position 1-28 of the human CCR6) (human, biotinylated).
T3 construct: also called first 28 AA
T3 peptide: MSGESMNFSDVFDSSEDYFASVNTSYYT
The assay can be described thus: ELISA, biotinylated peptide on a streptavidin-coated plate. The procedure:
(§1) Two overlapping biotinylated peptides spanning the entire N-terminal region of human CCR6 were then synthesized and used in more defined anti-CCR6 mAb epitope mapping studies. Peptide 1 ([…], SEQ ID NO: 2) corresponds to amino acid position 1-28 of the human CCR6 and Peptide 2 ([…], SEQ ID NO: 101) corresponds to amino acid position 18-46 of the human CCR6. Briefly, multiwell plates were coated with streptavidin and washed before the biotinylated peptides were added to separate wells and incubated to facilitate binding of the peptides to the plate. Different anti-human CCR6 antibodies were then tested by adding the respective antibodies to the wells of the plate and incubating the plate. An isotype control and buffer only were included as negative controls. Following washing, appropriate conjugated antibodies were added and the plates were incubated. The plates were washed again and binding of the antibodies to the immobilised peptides was visualised (FIGS. 8 and 9).
A general note: In an ELISA, binding on a coated surface is turned into a signal by an enzyme label.

For assay [4], the target named is T4, hCXCR3 (human, UniProt P49682 1-368).
T4 construct: whole, on cells; also called human CXCR3 transfected L1.2 cells
T4 sequence (looked up): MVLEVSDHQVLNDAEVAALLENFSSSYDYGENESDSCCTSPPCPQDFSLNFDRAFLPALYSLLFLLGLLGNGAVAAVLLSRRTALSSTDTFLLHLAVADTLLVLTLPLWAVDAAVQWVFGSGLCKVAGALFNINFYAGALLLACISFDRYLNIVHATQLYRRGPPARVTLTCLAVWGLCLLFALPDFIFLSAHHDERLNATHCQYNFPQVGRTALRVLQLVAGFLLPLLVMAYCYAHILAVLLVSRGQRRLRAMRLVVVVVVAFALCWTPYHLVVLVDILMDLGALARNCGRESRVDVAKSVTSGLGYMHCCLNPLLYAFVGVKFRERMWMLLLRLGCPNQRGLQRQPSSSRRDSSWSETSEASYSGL
Nature of the assay: flow cytometry, hybridoma culture supernatant on L1.2/hCXCR3 transfectants.

Assay [5] addresses T5, human CCR6 (human, UniProt P51684 1-374).
T5 construct: also called hCCR6; CD196
T5 sequence: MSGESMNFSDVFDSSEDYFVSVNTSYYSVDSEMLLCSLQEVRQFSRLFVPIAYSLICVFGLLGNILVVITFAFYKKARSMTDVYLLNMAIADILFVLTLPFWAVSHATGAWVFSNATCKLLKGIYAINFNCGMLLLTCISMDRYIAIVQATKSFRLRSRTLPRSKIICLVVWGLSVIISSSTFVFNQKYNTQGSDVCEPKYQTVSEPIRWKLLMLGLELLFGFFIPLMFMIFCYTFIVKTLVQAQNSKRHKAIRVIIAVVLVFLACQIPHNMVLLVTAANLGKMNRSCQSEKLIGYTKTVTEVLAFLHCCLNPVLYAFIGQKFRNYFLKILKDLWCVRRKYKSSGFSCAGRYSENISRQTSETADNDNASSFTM
The assay can be described thus: flow cytometry, hybridoma culture supernatant on L1.2/hCCR6 transfectants.

The target of assay [6] is T2, hCXCR2. Nature of the assay: flow cytometry, hybridoma culture supernatant on L1.2/hCXCR2 transfectants. The procedure: (§2) Monoclonal antibodies reactive with CCR6 were identified using human CCR6 transfected L1.2 cells, and untransfected L1.2 cells, or L1.2 cells transfected with unrelated or closely receptors such as hCXCRI, hCXCR2 or hCXCR3 using immunofluorescent staining and analysis using a FACSCalibur (BD Biosciences). Monoclonal antibody staining of cells was performed using standard procedures as described previously (Lee et al., 2006, Nat. Biotech. 24:1279-1284).
(§3) L1.2 transfectants expressing high levels of hCCR6 were used to immunize mice, and approximately 40 monoclonal antibodies were initially identified via flow cytometry that reacted with L1.2 cells transfected with hCCR6, of which approximately 10 reacted specifically with L1.2/hCCR6 transfectants but not with untransfected L1.2 cells or with L1.2 cells transfected with the closely related receptors hCXCRI, hCXCR2 or hCXCR3 (FIG. 3).
This is another data set of the same source.

In assay [7] the target is T1, hCXCR1. Nature of the assay: flow cytometry, hybridoma culture supernatant on L1.2/hCXCR1 transfectants. As to the method: as §2, §3
The source holds these as a separate data set.

Assay [8] addresses T4, hCXCR3. Nature of the assay: flow cytometry, hybridoma culture supernatant on L1.2/hCXCR3 transfectants. The procedure:
as §2, §3
The source holds these as a separate data set.

Assay [9] addresses T5, human CCR6. The assay can be described thus: competition with 125I-MIP-3α for L1.2/hCCR6 transfectants, partially purified mAb. As to the method: For ligand binding analysis, recombinant human CCL20 (MIP3α) (“ligand”) was obtained from Peprotech (New Jersey, USA). […] Cells were washed once in binding buffer (50 mM Hepes, pH 7.5, 1 mM CaCl, 5 mM MgCb, 0.5% BSA) and resuspended in binding buffer at a concentration of 2.5×10^6 cells/ml. Cold Purified monoclonal antibody or diluted hybridoma culture medium (cold competitor) was added to a 96-well plate followed by an equal volume (40 μl) binding buffer containing 1×10^5 cells. Cells and competitor were preincubated at room temperature for 15 min. Then radiolabeled ligand (final concentration 0.5-2 nM) was added to each well to give a final reaction volume of 120 μl. After a 60-min incubation at room temperature, the cells were washed three times with 1 ml of binding buffer containing 150 mM NaCl. The radioactivity (amount of bound label) in the cell pellets was counted in a TopCount liquid scintillation counter (Packard). Non-specific background binding was calculated by incubating cells […]. Samples were assayed in duplicate.
After incubation and washing the amount of label bound to cells was measured and the percentage inhibition determined by comparison to a control reaction with no added antibody (FIGS. 1 and 5).

Assay [10] addresses T6, Peptide 2 (amino acid position 18-46 of the human CCR6) (human, biotinylated).
T6 construct: also called AA 18 to 46
T6 peptide: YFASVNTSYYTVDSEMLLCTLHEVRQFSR
The assay can be described thus: ELISA, biotinylated peptide on a streptavidin-coated plate. As to the method:
as §1

Positions count from the first letter of the chain named. Where two headings read alike, the source gives them in different places.

B1: AB3 (antibody, V domains shown)
VH: EVNLVESGGGLVQPGGSLKLSCAASGFTFSDYYLYWVRQTPEKRLEWVTYITNGGGRTYYSDTVRGRFTISRDNAKNTLYLQMSRLKSEDTAMYYCASPPLGGAWFGYWGQGTLVTVS
VL: DVLMTQTPLSLPVSLGDQASISCRSSQSIVHSNGNTYLEWYLQKPGQSPKLLIYKVSKRFSGVPDRFSGSGSGTDFTLKISRVEAEDLGVYYCFQGSHVPLTFGAGTKLELKR
notes: Mouse hybridoma antibody, isotype IgG1; also called AB3-N21
On to B1, for which the binding result with hCXCR1 [1] is reported as “no binding (tested: not given (culture supernatant))”; in the assay with hCXCR2 [2], “no binding (tested: not given (culture supernatant))”; in assay [3] it was “binds”; with hCXCR3 [4], “no binding (tested: not given (culture supernatant))”; in the assay with human CCR6 [5], “binds”.

B2: AB1 (antibody, V domains shown)
VH: B1 VH with L34M, G55D, A97T
VL: B1 VL
notes: Mouse hybridoma antibody, isotype IgG1; also called AB1-O17
In the case of B2, the binding result is listed as “no binding (tested: not given (culture supernatant))” with hCXCR2 [6]; “no binding (tested: not given (culture supernatant))” in the assay with hCXCR1 [7]; “binds” in [3]; “no binding (tested: not given (culture supernatant))” with hCXCR3 [8]; “binds” with human CCR6 [9].

B3: mouse AB6 mAb (antibody, V domains shown)
VH: B1 VH with N3K, T28P, T49A, G55V, T63S, R65K, A92S, A97T, G107A
VL: B1 VL
notes: Mouse hybridoma antibody, isotype IgG2b; also called mAB6; AB6-K5
Regarding B3, the binding result in the assay with hCXCR1 [1] was “no binding (tested: not given (culture supernatant))”; with hCXCR2 [2], “no binding (tested: not given (culture supernatant))”; in assay [3], “binds”; in the assay with hCXCR3 [4], “no binding (tested: not given (culture supernatant))”. In addition, in the assay with human CCR6 [9], the “IC50 (read off the curve)” value is roughly 7 nM.

B4: AB2 (antibody, V domains shown)
VH: B1 VH with A23E, T28S, L34M, V64I, K76R, A97T
VL: B1 VL with L3S, I29L
notes: Mouse hybridoma antibody, isotype IgG1; also called AB2-O17
For B4, the binding result (in [3]; with human CCR6 [9]) was “binds” throughout.

B5: AB4 (antibody, V domains shown)
VH: B1 VH with L34M
VL: B1 VL with I29L, E84G
notes: Mouse hybridoma antibody, isotype IgG2b; also called AB4-K15
Consider B5, for which the binding result is listed as “no binding (tested: not given (culture supernatant))” with hCXCR1 [1], “no binding (tested: not given (culture supernatant))” with hCXCR2 [2], “no binding (tested: not given (culture supernatant))” with hCXCR3 [4] and “binds” with human CCR6 [5].

B6: AB5 (antibody, V domains shown)
VH: B1 VH with A23E, L34M, G55A, G107A
VL: B1 VL with L3S, I29L
notes: Mouse hybridoma antibody, isotype IgG1; also called AB5-M19
Regarding B6, the binding result with human CCR6 [9] was “binds”.

B7: AB11 (antibody, V domains shown)
VH: B1 VH with K19I, A23E, T28S, L34M, T63A, V64I, K76R, A97T
VL: B1 VL with L3S, I29L
notes: Mouse hybridoma antibody, isotype IgG1; also called AB11-M9
For B7, the binding result (in assay [3]; with human CCR6 [9]) was “binds” each time.

B8: AB7 (antibody, V domains shown)
VH: QDQLQQSGVALARPGASVKLSCKASEYTFKSFGLGWVKQRPGQGLEWIGEIYPRSGNTYYNEKVKGKVRLTADKSSNSVYMEFRSLTSEDSAVYFCARSPYDGYFDYWGQGTTLTVS
VL: DVVMTHSPLSLPVSLGDQASISCRSSQSLLHINGNTYLHWYLQKPGQSPKLLIYRVSNRLSGVPDRFSGSGSGTDFTLKISRVEAEDLGVYFCSQSTHVPRTFGGGTKLEIKR
notes: Mouse hybridoma antibody; also called clone AB7
For B8, the binding result in assay [3] and in assay [10] was “binds” throughout.

Source of the values: patent publication US20240109971A1 (MONASH UNIVERSITY, published 2024).
